Measured values taken from ChEMBL document CHEMBL1130856, “A new series of cyclic amino acids as inhibitors of S-adenosyl L-methionine synthetase” (Bioorg Med Chem Lett, 1998).

Test system: CSCC[C@H](N)C(=O)O
Description: Compound was evaluated for its inhibitory activity against recombinant S-adenosyl L-Methionine synthetase (alpha-isoform) in rat liver

Chain of S-adenosylmethionine synthase isoform type-1 (Rattus norvegicus), P13444 (P13444 whole entry, canonical isoform): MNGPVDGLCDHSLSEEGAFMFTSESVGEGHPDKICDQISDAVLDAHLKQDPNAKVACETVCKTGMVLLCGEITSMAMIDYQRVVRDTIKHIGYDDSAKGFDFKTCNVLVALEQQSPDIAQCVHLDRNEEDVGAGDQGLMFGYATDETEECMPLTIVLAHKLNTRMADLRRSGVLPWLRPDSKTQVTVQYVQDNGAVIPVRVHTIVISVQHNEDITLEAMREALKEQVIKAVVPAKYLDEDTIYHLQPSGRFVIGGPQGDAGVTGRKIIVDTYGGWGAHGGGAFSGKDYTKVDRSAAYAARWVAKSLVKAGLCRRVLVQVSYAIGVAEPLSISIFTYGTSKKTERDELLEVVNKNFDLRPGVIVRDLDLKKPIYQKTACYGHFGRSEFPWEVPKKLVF

S-adenosylmethionine synthase isoform type-1 (Rattus norvegicus), P13444
Km: 70 µM
